In PMC3516615 (Structure (London, England : 1993), 2012):
Where two headings read alike, the source gives them in different places. Each block holds one binder with its values, some of them ahead of it.

Key:
[1] = biological target: EphB2 SAM domain penta-mutant L954K/T959R/A961P/K966R/N969Y (human); test: ITC
[2] = biological target: T1, EphA2 SAM domain R950T (human, UniProt P29317 897-976, R950T); test: ITC
T1 sequence (looked up): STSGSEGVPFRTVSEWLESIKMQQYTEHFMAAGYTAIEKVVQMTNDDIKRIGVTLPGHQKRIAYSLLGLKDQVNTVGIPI

[3] = biological target: T2, EphA2 SAM domain (wild type) (human, UniProt P29317 897-976); test: ITC
T2 sequence (looked up): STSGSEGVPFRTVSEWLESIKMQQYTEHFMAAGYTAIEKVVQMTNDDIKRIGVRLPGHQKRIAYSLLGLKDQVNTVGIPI

[4] = biological target: T3, EphA2 SAM domain K917D (human, UniProt P29317 897-976, K917D); test: ITC
T3 sequence (looked up): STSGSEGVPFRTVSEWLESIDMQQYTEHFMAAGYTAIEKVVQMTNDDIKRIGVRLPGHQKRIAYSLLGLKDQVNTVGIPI

[5] = biological target: T4, EphA2 SAM domain K956D (human, UniProt P29317 897-976, K956D); test: ITC
T4 sequence (looked up): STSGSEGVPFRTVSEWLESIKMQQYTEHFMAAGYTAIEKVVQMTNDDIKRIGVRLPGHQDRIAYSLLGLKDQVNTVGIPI

[6] = biological target: T5, EphA2 SAM domain K956E (human, UniProt P29317 897-976, K956E); test: ITC
T5 sequence (looked up): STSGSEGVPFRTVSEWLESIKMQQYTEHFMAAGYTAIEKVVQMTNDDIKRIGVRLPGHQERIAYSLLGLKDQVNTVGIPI

[7] = biological target: T6, EphA2 SAM domain Y960N (human, UniProt P29317 897-976, Y960N); test: ITC
T6 sequence (looked up): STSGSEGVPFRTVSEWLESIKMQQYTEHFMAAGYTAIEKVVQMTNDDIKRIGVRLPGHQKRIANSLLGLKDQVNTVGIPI

[8] = biological target: T7, EphA2 SAM domain K945L (human, UniProt P29317 897-976, K945L); test: ITC
T7 sequence (looked up): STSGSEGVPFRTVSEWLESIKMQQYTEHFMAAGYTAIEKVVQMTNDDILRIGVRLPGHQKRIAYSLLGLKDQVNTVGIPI

[9] = biological target: T8, EphA2 SAM domain K945L/Y960N (human, UniProt P29317 897-976, K945L | Y960N); test: ITC
T8 sequence (looked up): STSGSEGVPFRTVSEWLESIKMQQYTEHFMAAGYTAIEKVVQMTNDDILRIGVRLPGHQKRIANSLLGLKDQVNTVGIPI

[10] = biological target: T9, EphA1 SAM domain (human, UniProt P21709 906-976); test: ITC
T9 sequence (looked up): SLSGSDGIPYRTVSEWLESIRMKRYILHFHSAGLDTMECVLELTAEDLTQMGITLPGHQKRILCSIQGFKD

[11] = biological target: T10, EphA2 SAM domain R950E (human, UniProt P29317 897-976, R950E); test: ITC
T10 sequence (looked up): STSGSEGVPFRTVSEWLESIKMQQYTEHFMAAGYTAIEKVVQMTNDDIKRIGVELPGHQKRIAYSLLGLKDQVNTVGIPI

[12] = biological target: T2, EphA2 SAM domain (wild type); test: NMR titration
[13] = biological target: T2, EphA2 SAM domain (wild type); test: ITC; remark: listed apart in the source
[14] = biological target: T2, EphA2 SAM domain (wild type); test: ITC; remark: listed apart in the source
[15] = biological target: T11, EphA2 SAM domain K917E (human, UniProt P29317 897-976, K917E); test: ITC
T11 sequence (looked up): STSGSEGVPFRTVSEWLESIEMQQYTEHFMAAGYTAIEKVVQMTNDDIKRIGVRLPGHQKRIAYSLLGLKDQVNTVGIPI

[16] = biological target: EphA2, full length, R950T, expressed in U87 cells (human, UniProt P29317 24-976, R950T); test: co-IP

Kd [5]: 7 ± 3 µM | dH [5]: -0.8 kcal/mol
B3: SHIP2 SAM domain D1235K (domain or fragment, human, UniProt O15357 1192-1258, looked up)
chain: RASGLGEAGMSAWLRAIGLERYEEGLVHNGWDDLEFLSDITEEKLEEAGVQDPAHKRLLLDTLQLSK

Kd [13]: 4 ± 0.4 µM | dH [13]: -5.5 kcal/mol | Kd [11]: 11.2 ± 2.7 µM | dH [11]: -7.5 kcal/mol
B4: SHIP2 SAM domain H1219E (domain or fragment, human, UniProt O15357 1192-1258, looked up)
chain: RASGLGEAGMSAWLRAIGLERYEEGLVENGWDDLEFLSDITEEDLEEAGVQDPAHKRLLLDTLQLSK

fold enhancement of the interaction against the wild-type pair [14]: ~4 fold
B6: SHIP2 SAM domain H1219S (domain or fragment, human, UniProt O15357 1192-1258, looked up)
chain: RASGLGEAGMSAWLRAIGLERYEEGLVSNGWDDLEFLSDITEEDLEEAGVQDPAHKRLLLDTLQLSK

fold binding against wild type EphA2 [16]: ~2 fold
B8: SHIP2 (SH2-linked inositol phosphatase 2), endogenous in U87 cells (enzyme, human (endogenous in U87), UniProt O15357 1-1258, looked up)
chain: MASACGAPGPGGALGSQAPSWYHRDLSRAAAEELLARAGRDGSFLVRDSESVAGAFALCVLYQKHVHTYRILPDGEDFLAVQTSQGVPVRRFQTLGELIGLYAQPNQGLVCALLLPVEGEREPDPPDDRDASDGEDEKPPLPPRSGSTSISAPTGPSSPLPAPETPTAPAAESAPNGLSTVSHDYLKGSYGLDLEAVRGGASHLPHLTRTLATSCRRLHSEVDKVLSGLEILSKVFDQQSSPMVTRLLQQQNLPQTGEQELESLVLKLSVLKDFLSGIQKKALKALQDMSSTAPPAPQPSTRKAKTIPVQAFEVKLDVTLGDLTKIGKSQKFTLSVDVEGGRLVLLRRQRDSQEDWTTFTHDRIRQLIKSQRVQNKLGVVFEKEKDRTQRKDFIFVSARKREAFCQLLQLMKNKHSKQDEPDMISVFIGTWNMGSVPPPKNVTSWFTSKGLGKTLDEVTVTIPHDIYVFGTQENSVGDREWLDLLRGGLKELTDLDYRPIAMQSLWNIKVAVLVKPEHENRISHVSTSSVKTGIANTLGNKGAVGVSFMFNGTSFGFVNCHLTSGNEKTARRNQNYLDILRLLSLGDRQLNAFDISLRFTHLFWFGDLNYRLDMDIQEILNYISRKEFEPLLRVDQLNLEREKHKVFLRFSEEEISFPPTYRYERGSRDTYAWHKQKPTGVRTNVPSWCDRILWKSYPETHIICNSYGCTDDIVTSDHSPVFGTFEVGVTSQFISKKGLSKTSDQAYIEFESIEAIVKTASRTKFFIEFYSTCLEEYKKSFENDAQSSDNINFLKVQWSSRQLPTLKPILADIEYLQDQHLLLTVKSMDGYESYGECVVALKSMIGSTAQQFLTFLSHRGEETGNIRGSMKVRVPTERLGTRERLYEWISIDKDEAGAKSKAPSVSRGSQEPRSGSRKPAFTEASCPLSRLFEEPEKPPPTGRPPAPPRAAPREEPLTPRLKPEGAPEPEGVAAPPPKNSFNNPAYYVLEGVPHQLLPPEPPSPARAPVPSATKNKVAITVPAPQLGHHRHPRVGEGSSSDEESGGTLPPPDFPPPPLPDSAIFLPPSLDPLPGPVVRGRGGAEARGPPPPKAHPRPPLPPGPSPASTFLGEVASGDDRSCSVLQMAKTLSEVDYAPAGPARSALLPGPLELQPPRGLPSDYGRPLSFPPPRIRESIQEDLAEEAPCLQGGRASGLGEAGMSAWLRAIGLERYEEGLVHNGWDDLEFLSDITEEDLEEAGVQDPAHKRLLLDTLQLSK

The remaining lines, values behind:

B1: SHIP2 SAM domain (wild type) (domain or fragment, human, UniProt O15357 1192-1258, looked up)
chain: RASGLGEAGMSAWLRAIGLERYEEGLVHNGWDDLEFLSDITEEDLEEAGVQDPAHKRLLLDTLQLSK
Kd [1]: 7.6 µM | fold enhancement of the interaction against the wild-type pair [2]: ~4 fold | Kd [3]: 5.2 ± 1.2 µM | dH [3]: -2.5 kcal/mol | Kd [4]: 9.1 ± 5.7 µM | dH [4]: -0.85 kcal/mol | Kd [5]: > 50 µM | Kd [6]: > 50 µM | Kd [7]: 3.1 ± 0.4 µM | dH [7]: -3 kcal/mol | Kd [8]: 1.3 ± 0.2 µM | dH [8]: -2.1 kcal/mol | Kd [9]: 1.6 ± 0.6 µM | dH [9]: -2 kcal/mol | Kd [10]: 3.8 ± 0.4 µM | dH [10]: -3.6 kcal/mol | Kd [11]: 1.7 ± 0.3 µM | dH [11]: -2.4 kcal/mol | Kd [12]: ~10 µM

B2: SHIP2 SAM domain D1224K (domain or fragment, human, UniProt O15357 1192-1258, looked up)
chain: RASGLGEAGMSAWLRAIGLERYEEGLVHNGWDKLEFLSDITEEDLEEAGVQDPAHKRLLLDTLQLSK
Kd [4]: 10 ± 2 µM | dH [4]: -2.5 kcal/mol

B5: SHIP2 SAM domain H1219R (domain or fragment, human, UniProt O15357 1192-1258, looked up)
chain: RASGLGEAGMSAWLRAIGLERYEEGLVRNGWDDLEFLSDITEEDLEEAGVQDPAHKRLLLDTLQLSK
Kd [11]: 1.3 ± 0.1 µM | dH [11]: -5 kcal/mol

B7: SHIP2 SAM domain E1226K (domain or fragment, human, UniProt O15357 1192-1258, looked up)
chain: RASGLGEAGMSAWLRAIGLERYEEGLVHNGWDDLKFLSDITEEDLEEAGVQDPAHKRLLLDTLQLSK
Kd [15]: 15.4 ± 1.9 µM | dH [15]: -2 kcal/mol
